Source: patent US9926369B2, “Methods for treating hepatocellular cancer by administering an anti-Ang-2 antibody” (Regeneron Pharmaceuticals, Inc., priority 2009, dated 2018)

How the values were obtained:
hAng-2FD-mFc Y-475-H = target: T1, hAng-2FD-mFc Y-475-H (Homo sapiens, UniProt O15123, Y475H); assay: Ang-2FD-mFc point mutant binding experiment (SPR), Y-475-H; settings: Y-475-H mutant captured; antibody/peptibody at 100 nM; 25° C.
T1 construct: made in house
Source text: To further characterize binding between hAng2 and anti-hAng2 mAbs of the invention, seven variant hAng2-FD-mFc proteins were generated, each containing a single point mutation. Amino acids selected for mutation were based on the difference in sequence between hAng-2 and hAng-1 in the region that interacts with hTie-2 (FIG. 1). In particular, amino acids within the fibrinogen-like domain (FD) of Ang-2 which are believed to interact with Tie-2 based on crystal structure analysis, but which differ from the corresponding amino acid in Ang-1, were individually mutated to the corresponding hAng-1 residue. The results of this example indicate the amino acid residues of hAng-2 with which the Ang-2 preferential binding antibodies interact.
In this experiment, each of the seven hAng-2FD-mFc mutant proteins were captured (˜147-283 RU) on an anti-mouse-Fc surface created through direct chemical coupling to a BIACORE™ chip. Then each Ang-2 antibody (or peptibody, as the case may be) at 100 nM was injected over the captured mFc-tagged hAng-2FD protein surface at a flowrate of 50 μl/min for 180 sec, and the dissociation of variant hAng2-FD-mFc and antibody was monitored in real time for 20 min at 25° C.

hAng-1-WT = target: T2, hAng-1-WT (Homo sapiens, UniProt Q15389); assay: SPR binding to full-length wild-type human Ang-1 (preferential binding)
T2 construct: Full-length wild-type human Ang-1 or Ang-2 at a concentration of 25 nM or 0.78 nM
T2 sequence (Q15389 16-498): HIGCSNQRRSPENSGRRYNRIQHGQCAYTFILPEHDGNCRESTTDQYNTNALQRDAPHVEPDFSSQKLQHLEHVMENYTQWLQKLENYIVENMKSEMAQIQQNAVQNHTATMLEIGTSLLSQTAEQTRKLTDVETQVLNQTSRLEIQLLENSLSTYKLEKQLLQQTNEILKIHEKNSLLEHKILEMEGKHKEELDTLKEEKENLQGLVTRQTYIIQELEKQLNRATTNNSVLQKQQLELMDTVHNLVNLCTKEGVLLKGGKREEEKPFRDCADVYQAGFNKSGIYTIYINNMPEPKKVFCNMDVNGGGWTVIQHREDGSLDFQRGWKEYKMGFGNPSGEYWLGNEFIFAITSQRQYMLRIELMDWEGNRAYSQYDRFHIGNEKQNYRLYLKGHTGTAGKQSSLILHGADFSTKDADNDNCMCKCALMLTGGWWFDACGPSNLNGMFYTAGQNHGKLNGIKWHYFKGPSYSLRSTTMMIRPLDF
Procedure: Binding experiments (plasmon resonance assays) were conducted to ascertain whether selected antibodies bound to both Ang-2 and Ang-1 or if they preferentially bound to Ang-2 only. Each selected antibody or control construct was captured at a flow rate of 40 μL/min for 1 minute on a goat anti-human IgG polyclonal antibody surface created through direct chemical coupling to a BIACORE™ chip to form a captured antibody surface. Full-length wild-type human Ang-1 or Ang-2 at a concentration of 25 nM or 0.78 nM were injected over the captured antibody surface at a flowrate of 60 μL/min for 3 minutes, and antigen-antibody dissociation was monitored in real time for 20 minutes at either 25° C. or 37° C.

[1] = target: T3, hAng-2-WT binding to hTie-2-mFc (Homo sapiens, UniProt O15123); assay: Biosensor SPR blocking of hAng-2-WT binding to hTie-2-mFc-ecto surface; assay type: biochemical; settings: 25 nM hAng-2-WT
T3 sequence (O15123 19-496): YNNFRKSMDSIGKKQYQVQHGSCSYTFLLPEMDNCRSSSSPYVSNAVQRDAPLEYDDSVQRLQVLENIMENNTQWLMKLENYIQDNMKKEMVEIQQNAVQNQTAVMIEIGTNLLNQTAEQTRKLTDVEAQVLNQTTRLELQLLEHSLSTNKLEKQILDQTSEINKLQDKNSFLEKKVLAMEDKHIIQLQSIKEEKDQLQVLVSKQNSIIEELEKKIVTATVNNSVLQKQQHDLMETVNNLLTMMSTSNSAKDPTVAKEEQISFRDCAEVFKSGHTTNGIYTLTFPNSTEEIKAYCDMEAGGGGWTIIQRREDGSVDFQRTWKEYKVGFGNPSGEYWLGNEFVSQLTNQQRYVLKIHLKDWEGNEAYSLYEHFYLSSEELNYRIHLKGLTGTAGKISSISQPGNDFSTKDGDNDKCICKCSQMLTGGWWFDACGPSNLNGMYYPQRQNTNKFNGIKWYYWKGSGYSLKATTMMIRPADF
Procedure: The foregoing experiment was repeated using different amounts of Ang-2 blockers and controls. In particular, a human Tie-2 full-length extracellular domain construct (hTie-2-mFc-ecto) was amine-coupled on a BIACORE™ chip to create a receptor-coated surface. Selected anti-hAng-2 antibodies and control constructs (50 or 150 nM) were mixed with hAng-2-WT (25 nM) followed by 60 minutes incubation at 25° C. to allow antibody-antigen binding to reach equilibrium. The equilibrated solutions were injected over the receptor surfaces at 10 μL/min for 5 minutes at 25° C. To evaluate the ability of the selected anti-hAng-2 antibodies to block Ang-1-WT binding to hTie-2, a similar procedure was followed except the antibodies were tested at three concentrations (50, 100 or 1000 nM) and incubated with 10 nM of hAng-1-WT. Changes in resonance units (RU) due to the binding of the Ang-2-WT or hAng-1-WT to hTie-2-mFc were determined. An irrelevant antibody with no binding to either angiopoietin was included in these experiments to establish the 0% blocking baseline, and a human Tie-2-mFc construct was used as a positive control for blocking. Results are summarized in Tables 21 (hAng-1 applied to a hTie-2 surface) and 22 (hAng-2 applied to a hTie-2 surface).

T1 sequence (O15123 with tags, fused parts or gaps Y475H): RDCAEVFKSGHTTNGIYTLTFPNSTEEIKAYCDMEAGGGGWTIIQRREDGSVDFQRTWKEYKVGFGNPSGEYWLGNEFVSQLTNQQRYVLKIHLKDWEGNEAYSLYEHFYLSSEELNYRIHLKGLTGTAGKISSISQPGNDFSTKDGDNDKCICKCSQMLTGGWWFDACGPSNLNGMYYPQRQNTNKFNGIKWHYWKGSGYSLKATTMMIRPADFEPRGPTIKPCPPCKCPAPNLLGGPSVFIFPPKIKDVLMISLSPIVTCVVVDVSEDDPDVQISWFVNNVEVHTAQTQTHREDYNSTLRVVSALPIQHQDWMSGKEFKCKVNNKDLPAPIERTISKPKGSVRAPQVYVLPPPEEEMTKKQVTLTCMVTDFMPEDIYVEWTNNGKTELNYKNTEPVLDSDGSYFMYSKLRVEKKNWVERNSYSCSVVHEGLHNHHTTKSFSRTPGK

H1H685P: human anti-Ang-2 antibody, HCVR/LCVR SEQ ID NOs 18/20; also referred to as mAb1 [Antibody H1H685P]
Kd (hAng-2FD-mFc Y-475-H): 0.196 nM | RU (hAng-2FD-mFc Y-475-H): 181.53 RU | KD, binding to hAng-1-WT (hAng-1-WT; 25° C.): No binding | ka, binding to hAng-1-WT (hAng-1-WT; 25° C.): No binding | kd, binding to hAng-1-WT (hAng-1-WT; 25° C.): No binding | KD, binding to hAng-1-WT (hAng-1-WT; 37° C.): No binding | ka, binding to hAng-1-WT (hAng-1-WT; 37° C.): No binding | kd, binding to hAng-1-WT (hAng-1-WT; 37° C.): No binding | Binding to Ang-1 (in words) (hAng-1-WT; SPR): does not bind to Ang-1 | Percent of Neg. Ctrl Binding (hAng-2 WT) ([1]; 50 nM antibody or control): 4.3% | Specific Bound RU (hAng-2 WT) ([1]; 50 nM antibody or control): 12 RU | Percent of Neg. Ctrl Binding (hAng-2 WT) ([1]; 150 nM antibody or control): 4.3% | Specific Bound RU (hAng-2 WT) ([1]; 150 nM antibody or control): 12 RU
